Each block holds one molecule with its values, some of them ahead of it.
Tests used:
[1] = test system: actin; conditions: Shu et al.; cited from earlier work
[2] = test system: DNA in the presence of rabbit skeletal actin; test: Influence of actin polymerisation on DNAse activity: decrease in viscosity of DNA/actin solutions; type: biochemical
Protocol: The viscosity of DNA and DNA/actin solutions was measured with a calibrated capillary viscosimeter (Schott Geräte, Hofheim, Germany) equipped with an automated apparatus (Lauda, Köningshofen, Germany). The capillary viscosimeter was placed in a water bath (20.00° C.±0.05° C.) and the outflow times (t in s) were determined automatically. The viscosity (η) of the solutions is related to t by: […] Biol. Chem. (1971) 246: 4866-4871) (6,4 μg/ml […], 1.5 mg DNA/ml and 1.1 mg actin/ml 70 mM NaCl, 3 mM CaCl2, 0.35 mM ATP, 3.2 mM TRIS/HCl, 0.13 mM DTT, and 0.006% NaN3, pH 7,0). K^+ and Mg^2+ were supplied as K2HPO4 and MgCl2 respectively.

[3] = test system: DNA (salmon sperm DNA from Sigma); test: Effect of K+ and Mg2+ on DNAse activity: decrease in viscosity of a standardised DNA digest (capillary viscosimeter); type: biochemical
Protocol: The viscosity of DNA and DNA/actin solutions was measured with a calibrated capillary viscosimeter (Schott Geräte, Hofheim, Germany) equipped with an automated apparatus (Lauda, Köningshofen, Germany). The capillary viscosimeter was placed in a water bath (20.00° C.±0.05° C.) and the outflow times (t in s) were determined automatically. The viscosity (η) of the solutions is related to t by: [formula] where k and B are known constants. The effect of Mg^2+ and K^+ ions on the activity of DNAse (measured as decrease in viscosity) was determined by changing the Mg^2+ and K^+ concentration in a standardised DNA digest. DNA (salmon sperm DNA from Sigma) was digested (10 μ[…], 2,3 mg/ml DNA, 70 mM NaCl, and 3 mM CaCl2, pH 7.0) in order to determine the change in viscosity of the DNA solution.

[4] = DNA/actin solution 1: K+ 14.0 mM, Mg2+ 0.90 mM
[5] = DNA/actin solution 2: K+ 26.0 mM, Mg2+ 0.90 mM
[6] = DNA/actin solution 3: K+ 26.0 mM, Mg2+ 2.70 mM

Molecule: [Cl-].[Cl-].[Mg+2] [Mg^2+, magnesium chloride]
concentration giving maximal actin polymerisation [1]: 2 mM

Molecule: O=P([O-])([O-])O.[K+].[K+] [K+, potassium hydrogenophosphate]
concentration giving maximal actin polymerisation [1]: 200 mM

η at t = 20 min [2, 4]: 9.4 mm2/s
η at t = 30 min [2, 4]: 8.6 mm2/s
η at t = 10 min ([2]; DNA/actin solution 1: K+ 14.0 mM, Mg2+ 0.90 mM, η 14.3 at t = 0): 9.8 mm2/s
η at t = 30 min [2, 5]: 7.7 mm2/s
η at t = 10 min [2, 6]: 6.1 mm2/s
η at t = 20 min [2, 6]: 5.8 mm2/s
η at t = 30 min [2, 6]: 5.5 mm2/s
η at t = 10 minutes ([3]; DNA solution 1: K+ 14.0 mM, Mg2+ 1.65 mM, η 31.5 at t = 0): 1.1 mm^2/s
η at t = 10 minutes ([3]; DNA solution 2: K+ 26.0 mM, Mg2+ 1.65 mM, η 31.5 at t = 0): 1.1 mm^2/s
η at t = 10 minutes ([3]; DNA solution 3: K+ 20.0 mM, Mg2+ 0.90 mM, η 33.9 at t = 0): 1.1 mm^2/s
η at t = 10 minutes ([3]; DNA solution 4: K+ 20.0 mM, Mg2+ 2.70 mM, η 33.9 at t = 0): 1.1 mm^2/s
B1: rhDNAse I: Recombinant human DNAse I, commercially available under the trade name Pulmozyme, also designated dornase alpha (protein, UniProt P24855 23-282, looked up)
Deoxyribonuclease-1: LKIAAFNIQTFGETKMSNATLVSYIVQILSRYDIALVQEVRDSHLTAVGKLLDNLNQDAPDTYHYVVSEPLGRNSYKERYLFVYRPDQVSAVDSYYYDDGCEPCGNDTFNREPAIVRFFSRFTEVREFAIVPLHAAPGDAVAEIDALYDVYLDVQEKWGLEDVMLMGDFNAGCSYVRPSQWSSIRLWTSPTFQWLIPDSADTTATPTHCAYDRIVVAGMLLRGAVVPDSALPFNFQAAYGLSDQLAQAISDHYPVEVMLK
modifications: dornase alfa
notes: Recombinant human DNAse I, commercially available under the trade name Pulmozyme, also designated dornase alpha
decrease in viscosity at t = 10 min [2, 4]: 32%
decrease in viscosity at t = 20 min [2, 4]: 34%
decrease in viscosity at t = 30 min [2, 4]: 40%
decrease in viscosity at t = 30 min [2, 5]: 46%
decrease in viscosity at t = 10 min [2, 6]: 58%
decrease in viscosity at t = 20 min [2, 6]: 59%
decrease in viscosity at t = 30 min [2, 6]: 61%
DNAse activity in DNA/actin solutions ([2]; at high levels of Mg^2+ and K^+): highest
decrease in viscosity at t = 10 minutes ([3]; DNA solution 1: K+ 14.0 mM, Mg2+ 1.65 mM): 97%
decrease in viscosity at t = 10 minutes ([3]; DNA solution 2: K+ 26.0 mM, Mg2+ 1.65 mM): 97%
decrease in viscosity at t = 10 minutes ([3]; DNA solution 3: K+ 20.0 mM, Mg2+ 0.90 mM): 97%
decrease in viscosity at t = 10 minutes ([3]; DNA solution 4: K+ 20.0 mM, Mg2+ 2.70 mM): 97%
viscosity η of the DNA solution after digestion ([3]; all tested K+ and Mg2+ concentrations, value is near the viscosity of water): ~1 mm^2/s

From patent publication US7432308B2, “Therapeutic compositions for the treatment of a respiratory tract disease” (Universiteit Gent, priority 2001, dated 2008)
